Literature values, collected in publication PMC10162908.
pKd: −log10 of the molar value.

Target: EED (Homo sapiens) (UniProt O75530)
Chain of UniProt O75530 (O75530 2-441): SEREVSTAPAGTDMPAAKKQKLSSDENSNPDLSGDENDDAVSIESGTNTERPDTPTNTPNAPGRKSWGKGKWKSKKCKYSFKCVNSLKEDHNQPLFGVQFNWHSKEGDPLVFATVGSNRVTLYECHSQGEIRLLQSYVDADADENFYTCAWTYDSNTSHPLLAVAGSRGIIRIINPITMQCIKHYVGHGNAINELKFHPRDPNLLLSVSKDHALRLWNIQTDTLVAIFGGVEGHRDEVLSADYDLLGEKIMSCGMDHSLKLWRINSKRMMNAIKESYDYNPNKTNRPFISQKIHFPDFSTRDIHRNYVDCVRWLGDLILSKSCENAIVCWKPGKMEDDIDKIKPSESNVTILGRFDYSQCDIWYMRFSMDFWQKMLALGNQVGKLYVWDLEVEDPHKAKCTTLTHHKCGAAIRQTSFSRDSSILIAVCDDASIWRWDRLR

pKd: 5.05
Substance: Jarid2 K116me3 peptide 114-118 (from UniProt Q92833)
